Test [1] deals with T1, human OT7T175 (metastin receptor) (human, UniProt Q969F8 1-398). The test can be described thus: cell-based or functional assay.
The target of test [2] is T1, human OT7T175 (metastin receptor). As to the kind of experiment: competition with Cy-5 metastin (40-54) on hOT7T175-CHO cells, FMAT. Here is the method:
hOT7T175-Expressed CHO cells were cultured in MEM-α medium (nucleic acid-free) containing 10% dialyzed serum. The medium was removed and the adhered cells were washed with PBS. Then, PBS containing 5 mM EDTA was added and the cells were scraped from a flask with a cell scraper.
To each well of a 96-Well Black Clear Bottom Microplate (Applied Biosystems, Inc.), 10 μL of assay buffer containing 1% dimethylsulfoxide was added to examine total binding, 10 μL of 10 μM non-labeled peptide (having the same amino acid sequence as that of labeled one) solution diluted with assay buffer to examine non-specific binding, and 10 μL of a test compound diluted with assay buffer to examine a binding inhibition activity of the test compound, and furthermore, 90 μL each of the cell suspension was dispensed to each well. […] Specific binding is calculated as non-specific binding subtracted from total binding. The binding inhibition activity of a test compound is shown by a ratio of the value obtained by subtracting a measured value in presence of a test compound from the total binding to the specific binding.

Starred links: 1 amine or outer side, 2 acyl side, 3 side chain; linkers in the order of their positions; H or OH if unused. Non-standard residues stand in square brackets, D forms with d. Primed or numbered codes have the meaning given here. No end group written: not given here. *: point of attachment. Trp(For)″ = Trp(CHO), formyl-Trp, O=Cn1cc(C[C@H](N[*:1])C(=O)[*:2])c2ccccc21; GuAmb = 4-guanidinomethylbenzoyl, N=C(N)NCc1ccc(C(=O)*)cc1; Phe(3-CF3) = N[C@@H](Cc1cccc(C(F)(F)F)c1)C(=O)O; Arg(Et)′ = arginine carrying an ethyl group; Phe(4-CN) = N#Cc1ccc(C[C@H](N)C(=O)O)cc1; Phe(4-Cl) = N[C@@H](Cc1ccc(Cl)cc1)C(=O)O; Phe(3-F) = N[C@@H](Cc1cccc(F)c1)C(=O)O; Phe(4-F) = N[C@@H](Cc1ccc(F)cc1)C(=O)O; Phe(2-F) = N[C@@H](Cc1ccccc1F)C(=O)O; Arg(Me) = CNC(=N)NCCC[C@H](N)C(=O)O; Fmoc = O=C(OCC1c2ccccc2-c2ccccc21)*; 2Pal = N[C@@H](Cc1ccccn1)C(=O)O; 3Pal = N[C@@H](Cc1cccnc1)C(=O)O; Cha = N[C@@H](CC1CCCCC1)C(=O)O; Arg(Et)″ = ethylated arginine; Dab = NCC[C@H](N)C(=O)O; azaGly = NNC(=O)O

Consider 47 molecules from patent US20090298765A1 (Takeda / Millennium, published 2009).

T1 sequence (Q969F8 whole entry L364H): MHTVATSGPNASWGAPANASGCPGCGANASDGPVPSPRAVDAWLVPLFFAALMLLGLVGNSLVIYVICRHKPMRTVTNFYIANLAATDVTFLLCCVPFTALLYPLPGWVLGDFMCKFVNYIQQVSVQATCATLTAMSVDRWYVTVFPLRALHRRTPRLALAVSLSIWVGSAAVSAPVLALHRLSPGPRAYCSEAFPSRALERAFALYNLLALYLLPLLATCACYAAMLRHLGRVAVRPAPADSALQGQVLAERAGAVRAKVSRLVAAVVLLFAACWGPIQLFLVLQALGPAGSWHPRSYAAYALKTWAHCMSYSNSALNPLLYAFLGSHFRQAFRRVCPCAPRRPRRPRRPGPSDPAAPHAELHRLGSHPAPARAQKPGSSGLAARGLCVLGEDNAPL

Regarding GuAmb-F[azaGly]L[Arg(Me)]W-NH2 [des(1-5)-GuAmb-[AzaGly7,Arg(Me)9,Trp10]MS10], the “Ca ion level-increasing activity (FLIPR)” value in test [1] was 5 x Metastin (1-54).
On to [dY]N[dW]NSF[azaGly]L[Arg(Me)]F-NH2 (also called Compound No. 236) [[D-Tyr1,D-Trp3,AzaGly7,Arg(Me)9]MS10], for which the half-maximal inhibitory concentration (IC50) – broadly, the concentration that gives 50% inhibition – in test [2] was 42 nM.
In test [2], YNWNSFGLR[Phe(3-F)]-NH2 (also called Compound No. 197) [[Phe(3F)10]MS10] displayed an IC50 of 170 nM.
On the same count and under the same terms, the value for [dY]N[2Pal]NSF[azaGly]L[Arg(Me)]F-NH2 (also called Compound No. 285) [[D-Tyr1,Pya(2)3,AzaGly7,Arg(Me)9]MS10] was 40 nM; that for YNWNSFGLRX (Pya(3)10; C-terminal amide, also called Compound No. 60) [[Pya(3)10]MS10] was 170 nM; that for [dY]NWNSFGL[Arg(Me)]F-NH2 (also: bond 7-8 CONH replaced by CH2NH, also called Compound No. 307) [[7Ψ8,CH2NH,D-Tyr1,Arg(Me)9]MS10] was 64 nM.

B1: des(1-2)-Acetyl-[Ala3,AzaGly7,Arg(Me)9]MS10 (peptide)
peptide: Ac-ANSF[azaGly]L[Arg(Me)]F-NH2
SMILES: CNC(=N)NCCC[C@H](NC(=O)[C@H](CC(C)C)NC(=O)NNC(=O)[C@H](Cc1ccccc1)NC(=O)[C@H](CO)NC(=O)[C@H](CC(N)=O)NC(=O)[C@H](C)NC(C)=O)C(=O)N[C@@H](Cc1ccccc1)C(N)=O
As to B1, the “Ca ion level-increasing activity (FLIPR)” value in test [1] was 1 x Metastin (1-54).
For the molecule [dN][Cha]NSF[azaGly]L[Arg(Me)]F-NH2 [des(1)-[D-Asn2,Cha3,AzaGly7,Arg(Me)9]MS10], the “Ca ion level-increasing activity (FLIPR)” value in test [1] is 1 x Metastin (1-54).
As for YNWNSFGL[Arg(Et)′]F-NH2 (also called Compound No. 220) [[Arg(Et)9]MS10], in test [2], the half-maximal inhibitory concentration (IC50) stood at 330 nM.
[dY]N[dW]NSFGL[Arg(Me)]F-NH2 (also called Compound No. 142) [[D-Tyr1,D-Trp3,Arg(Me)9]MS10]: the IC50 in test [2] was 26 nM.
Regarding [dY]NWNSFGL[Arg(Et)″]F-NH2 (also called Compound No. 192) [[D-Tyr1,Arg(Et)9]MS10], the IC50 in test [2] is 530 nM.
The same measure, in the same setting: the value for ANWNSFGLRF-NH2 (also called Compound No. 72) [[Ala1]MS10] was 540 nM.
For the molecule YNWNSFGVRF-NH2 (also called Compound No. 107) [[Val8]MS10], the concentration for half-maximal inhibition (IC50) in test [2] turned out to be 120 nM.
Still for that read-out and setting: the value for YYWNSFGLRF-NH2 (also called Compound No. 58) [[Tyr2]MS10] was 16 nM; that for YNANSFGLRF-NH2 (also called Compound No. 67) [[Ala3]MS10] was 27 nM; that for [dY]NSNSF[azaGly]L[Arg(Me)]F-NH2 (also called Compound No. 191) [[D-Tyr1,Ser3,AzaGly7,Arg(Me)9]MS10] was 300 nM.
The same measure, in the same setting: in the case of YNWNSFGLKF-NH2 (also called Compound No. 44) [[Lys9]MS10] it was 190 nM.
Regarding YNWNSFGLR[Trp(For)″]-NH2 (also called Compound No. 186) [[Trp(For)10]MS10], the 50% inhibitory concentration (IC50) in test [2] worked out at 460 nM.
Molecule [dY]N[dA]NSF[azaGly]L[Arg(Me)]F-NH2 (also called Compound No. 252) [[D-Tyr1,D-Ala3,AzaGly7,Arg(Me)9]MS10] had an IC50 in test [2] of 580 nM.
The molecule YNKNSFGLRF-NH2 (also called Compound No. 71) [[Lys3]MS10] yielded a half-maximal inhibitory concentration (IC50) in test [2] of 66 nM.
YNDNSFGLRF-NH2 (also called Compound No. 70) [[Asp3]MS10] yielded an IC50 in test [2] of 200 nM.
Same read-out and setting: the value for YDWNSFGLRF-NH2 (also called Compound No. 57) [[Asp2]MS10] was 100 nM.

B2: [D-Tyr1,Pro3,AzaGly7,Arg(Me)9]MS10 (peptide)
peptide: [dY]NPNSF[azaGly]L[Arg(Me)]F-NH2
modifications: N-terminus assumed
SMILES: CNC(=N)NCCC[C@H](NC(=O)[C@H](CC(C)C)NC(=O)NNC(=O)[C@H](Cc1ccccc1)NC(=O)[C@H](CO)NC(=O)[C@H](CC(N)=O)NC(=O)[C@@H]1CCCN1C(=O)[C@H](CC(N)=O)NC(=O)[C@H](N)Cc1ccc(O)cc1)C(=O)N[C@@H](Cc1ccccc1)C(N)=O
notes: also called Compound No. 253
For the molecule B2, the 50% inhibitory concentration (IC50) in test [2] is 27 nM.
For YNWNSYGLRF-NH2 (also called Compound No. 150) [[Tyr6]MS10], the IC50 in test [2] was 320 nM.
Same read-out and setting: in the case of YNWNYFGLRF-NH2 (also called Compound No. 23) [[Tyr5]MS10] it was 400 nM.
Same read-out and setting: the value for YNSNSFGLRF-NH2 (also called Compound No. 69) [[Ser3]MS10] was 83 nM.
Consider YLWNSFGLRF-NH2 (also called Compound No. 59) [[Leu2]MS10], for which, in test [2], the IC50 was 340 nM.
On the same count and under the same terms, the value for [dY]NTNSF[azaGly]L[Arg(Me)]F-NH2 (also called Compound No. 221) [[D-Tyr1,Thr3,AzaGly7,Arg(Me)9]MS10] was 95 nM; that for YNLNSFGLRF-NH2 (also called Compound No. 68) [[Leu3]MS10] was 7.7 nM; that for LNWNSFGLRF-NH2 (also called Compound No. 73) [[Leu1]MS10] was 220 nM.
The same measure, in the same setting: the value for [dY][dN][Cha]NSF[azaGly]L[Arg(Me)]F-NH2 (also called Compound No. 283) [[D-Tyr1,D-Asn2,Cha3,AzaGly7,Arg(Me)9]MS10] was 0.69 nM; that for YNWNSFGLR[Phe(4-F)]-NH2 (also called Compound No. 61) [[Phe(4F)10]MS10] was 13 nM.
The same measure, in the same setting: the value for YNWNSFGLR[Phe(3,4F2)]-NH2 (also called Compound No. 198) [[Phe(3,4F2)10]MS10] was 170 nM; that for NWNSFGLRF-NH2 (also called Compound No. 4) [des(1)-MS10] was 260 nM.

B3: des(1-2)-Acetyl-[Arg3,AzaGly7,Arg(Me)9]MS10 (peptide)
peptide: Ac-RNSF[azaGly]L[Arg(Me)]F-NH2
SMILES: CNC(=N)NCCC[C@H](NC(=O)[C@H](CC(C)C)NC(=O)NNC(=O)[C@H](Cc1ccccc1)NC(=O)[C@H](CO)NC(=O)[C@H](CC(N)=O)NC(=O)[C@H](CCCNC(=N)N)NC(C)=O)C(=O)N[C@@H](Cc1ccccc1)C(N)=O
notes: also called Compound No. 275
As to B3, the IC50 in test [2] turned out to be 410 nM.

B4: des(1-2)-Acetyl-[Thr3,AzaGly7,Arg(Me)9]MS10 (peptide)
peptide: Ac-TNSF[azaGly]L[Arg(Me)]F-NH2
SMILES: CNC(=N)NCCC[C@H](NC(=O)[C@H](CC(C)C)NC(=O)NNC(=O)[C@H](Cc1ccccc1)NC(=O)[C@H](CO)NC(=O)[C@H](CC(N)=O)NC(=O)[C@@H](NC(C)=O)[C@@H](C)O)C(=O)N[C@@H](Cc1ccccc1)C(N)=O
notes: also called Compound No. 276
B4: in test [2], the IC50 turned out to be 480 nM.
Same read-out and setting: the value for YNWNSFGLR[Phe(3-CF3)]-NH2 (also called Compound No. 200) [[Phe(3CF3)10]MS10] was 340 nM.
On the same count and under the same terms, the value for YNWNSFGL[Dab]F-NH2 (also called Compound No. 313) [[Dab9]MS10] was 690 nM; that for YNWNSF[azaGly]L[Arg(Me)]F-NH2 (also: bond 1-2 CONH replaced by CH2NH, also called Compound No. 299) [[1Ψ2,CH2NH,AzaGly7,Arg(Me)9]-MS10] was 1.2 nM; that for [dY]N[3Pal]NSF[azaGly]L[Arg(Me)]F-NH2 (also called Compound No. 251) [[D-Tyr1,Pya(3)3,AzaGly7,Arg(Me)9]MS10] was 87 nM.
The same measure, in the same setting: in the case of YNWNSFGLR[Phe(4-Cl)]-NH2 (also called Compound No. 130) [[Phe(4Cl)10]MS10] it was 42 nM.
Take YNWNSFGLR[Phe(2-F)]-NH2 (also called Compound No. 19) [[Phe(2F)10]MS10]: the IC50 in test [2] came to 8.6 nM.
Fmoc-WNSFGL[Arg(Me)]F-NH2 (also called Compound No. 145) [des(1-2)-Fmoc-[Arg(Me)9]MS10]: the IC50 in test [2] worked out at 120 nM.
Take [dW]NSFGL[Arg(Me)]F-NH2 (also called Compound No. 223) [des(1-2)-[D-Trp3,Arg(Me)9]MS10]: in test [2], the IC50 is 760 nM.
Same read-out and setting: in the case of [dY]N[Cha]NS[Cha]GL[Arg(Me)]F-NH2 (also called Compound No. 181) [[D-Tyr1,Cha3,6,Arg(Me)9]MS10] it was 19 nM.
For {D‑glucuronyl}-NSF[azaGly]L[Arg(Me)]F-NH2 (also called Compound No. 328) [des(1-3)-D-Glucuronyl-[AzaGly7,Arg(Me)9]MS10], the half-inhibitory concentration (IC50) in test [2] stood at 470 nM.
Molecule YNWNSFGLR[Phe(4-CN)]-NH2 (also called Compound No. 77) [[Phe(4CN)10]MS10] came in with an IC50 in test [2] of 7.4 nM.
